In paper PMC8458682 (Slas Discovery, 2022):

Experiments:
[1] = system: CC(C)C[C@H](NC(=O)[C@@H](NC(=O)[C@@H](NC(=O)[C@@H](NC(=O)c1ccccc1N)C(C)C)C(C)C)[C@@H](C)O)C(=O)N[C@@H](CCC(N)=O)C(=O)N[C@@H](CO)C(=O)NCC(=O)N[C@@H](CNc1ccc([N+](=O)[O-])cc1[N+](=O)[O-])C(=O)N[C@@H](CCCNC(=N)N)C(=O)O; experiment: purified protein, by the assay type; conditions: pH 7.4
[2] = system: CC(C)C[C@H](NC(=O)[C@@H](NC(=O)[C@@H](NC(=O)[C@@H](NC(=O)c1ccccc1N)C(C)C)C(C)C)[C@@H](C)O)C(=O)N[C@@H](CCC(N)=O)C(=O)N[C@@H](CO)C(=O)NCC(=O)N[C@@H](Cc1ccc(O)c([N+](=O)[O-])c1)C(=O)N[C@@H](CCCNC(=N)N)C(=O)O; experiment: purified protein, by the assay type; conditions: pH 7.4
[3] = system: CC(C)C[C@H](NC(=O)[C@@H](NC(=O)[C@H](C)NC(=O)[C@H](CO)NC(=O)c1ccccc1N)C(C)C)C(=O)N[C@@H](CCC(N)=O)C(=O)N[C@@H](CO)C(=O)NCC(=O)N[C@@H](Cc1ccc(O)c([N+](=O)[O-])c1)C(=O)N[C@@H](CCCNC(=N)N)C(=O)O; experiment: purified protein, by the assay type; conditions: pH 7.4
[4] = biological target: T1, SARS-CoV-2 M^pro (Severe acute respiratory syndrome coronavirus 2, UniProt P0DTD1); experiment: biochemical; conditions: read-out: Screening: Inhibition @ 50 µM
[5] = biological target: T1, SARS-CoV-2 M^pro; type: biochemical

Compound	Km [1] [µM]	Vmax [1] [µM/min]	kcat [1] [s⁻¹]	kcat/Km [1] [M⁻¹ s⁻¹]	Km [2] [µM]	Vmax [2] [µM/min]	kcat [2] [s⁻¹]	kcat/Km [2] [M⁻¹ s⁻¹]	Km [3] [µM]	Vmax [3] [µM/min]	kcat [3] [s⁻¹]	kcat/Km [3] [M⁻¹ s⁻¹]	inhibition at 50 µM [4] [%]	Hill slope [5]
SARS-CoV-2 M^pro (Severe acute respiratory syndrome coronavirus 2)	103.3 ± 18.5	0.426	0.0237 ± 0.0017	229 ± 44.2	197.9 ± 39.0	1.32	0.0733 ± 0.0077	370 ± 82.6	536.3 ± 156.6	2.39	0.133 ± 0.0279	248 ± 89.2		
CC(C)(C)NC(=O)N[C@H](C(=O)N1C[C@H]2[C@@H]([C@H]1C(=O)NC(CC1CCC1)C(=O)C(N)=O)C2(C)C)C(C)(C)C (some centres unmarked) [Boceprevir]													55.5 ± 4.7	0.85 ± 0.05
